Assay [1] addresses [Acp]2:[ISD11]2:[NFS1]2 cysteine desulfurase complex (human | E. coli) (UniProt Q9HD34). Kind of assay: SEC + other: amino acid analysis + other: SAXS.
Assay [2] deals with human mitochondrial cysteine desulfurase NFS1 (human). Kind of assay: amino acid analysis + other: SAXS.
The target of a further assay is human ISD11-His6 (human) (UniProt Q9HD34). Nature of the assay: amino acid analysis + other: SAXS.
The target in a further assay is human ISD11-His6 (human, UniProt Q9HD34 1-91). Nature of the assay: amino acid analysis + other: SAXS.
Sequence of human ISD11-His6 (Q9HD34 whole entry): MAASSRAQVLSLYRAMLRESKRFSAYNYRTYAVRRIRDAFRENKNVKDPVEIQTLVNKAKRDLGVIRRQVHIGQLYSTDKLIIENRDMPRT

Sequence of [Acp]2:[ISD11]2:[NFS1]2 cysteine desulfurase complex (human | E. coli) (Q9HD34 whole entry, looked up, one chain of several): as the sequence (Q9HD34 whole entry) above
Sequence of human ISD11-His6 (human) (Q9HD34 whole entry): as above
Sequence of human mitochondrial cysteine desulfurase NFS1 (human) (Q9Y697 whole entry): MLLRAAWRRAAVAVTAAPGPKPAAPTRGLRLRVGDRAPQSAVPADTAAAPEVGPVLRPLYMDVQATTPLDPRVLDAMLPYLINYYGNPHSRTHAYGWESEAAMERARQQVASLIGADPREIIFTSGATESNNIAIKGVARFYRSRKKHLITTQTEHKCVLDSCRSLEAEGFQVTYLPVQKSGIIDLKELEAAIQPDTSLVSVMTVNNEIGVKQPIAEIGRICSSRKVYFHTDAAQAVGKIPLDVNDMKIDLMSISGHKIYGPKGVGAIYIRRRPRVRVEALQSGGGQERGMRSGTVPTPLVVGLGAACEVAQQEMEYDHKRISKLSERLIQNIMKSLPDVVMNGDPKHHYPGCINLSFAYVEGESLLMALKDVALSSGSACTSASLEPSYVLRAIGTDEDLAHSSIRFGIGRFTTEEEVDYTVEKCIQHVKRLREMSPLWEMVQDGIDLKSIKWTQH

For orientation: stoichiometry N means the number of molecules, sites or subunits per partner or assembly. Consider “human frataxin FXN81-210 (mature form of frataxin) (from UniProt Q16595 81-210) (natural protein)”, for which the stoichiometry N in assay [1] came to 2.

On to “holo-form of E. coli acyl carrier protein (Acp) (from UniProt P0A6A8 1-78) (natural protein)”, for which the stoichiometry N in assay [2] came to 1.

Consider “human mitochondrial cysteine desulfurase NFS1 (enzyme)”, for which the stoichiometry N with human ISD11-His6 (human) was 1.

B1: holo-form of E. coli acyl carrier protein (Acp) (natural protein, UniProt P0A6A8 1-78, looked up)
chain: MSTIEERVKKIIGEQLGVKQEEVTNNASFVEDLGADSLDTVELVMALEEEFDTEIPDEEAEKITTVQAAIDYINGHQA
modifications: 4'-phosphopantetheine conjugated to S37
With B1, the “stoichiometry N” value with human ISD11-His6 was found to be 1.

Source of the values: publication PMC5404276 (ACS Chemical Biology, 2017).
